In PMC6509359 (Molecular Cell, 2019):
“And” between values parts separate entries of the source, which are not always exact repeats. Identical values can stand only once.

Key:
[1] = target: T1, ubiquitin-propargylamine, Ub(1-75)-PA (UniProt P0CG48 1-75, C-terminal propargylamine (PA) after residue 75); test: covalent reaction with the ubiquitin-propargylamine probe; 1.3 eq of His6-3C-Ub(1-75)-PA, 1–4 h at 4°C; complex purified over HisTrap by the probe's tag, 3C protease, gel filtration; conditions: both partners purified
T1 construct: ubiquitin residues 1-75, C-terminus carries propargylamine (reactive probe); reacts covalently with the DUB; the His6-3C tag was on the probe during the reaction and the HisTrap step and was cut off with 3C protease before gel filtration; also called Ub-PA; His6-3C-Ub(1-75)-PA; source: assembled as described previously (Gersch et al., 2017), > 95% purity by intact protein mass spectrometry; not …

[2] = target: the molecule itself; test: SEC-MALS; 100 μL of 1-2 mg/mL protein on Superdex 200 10/300, 0.5 mL/min, PBS + 2 mM DTT
[3] = target: the molecule itself; test: native gel or EMSA; native PAGE of lysates of HEK293 cells transfected with FLAG- or HA-tagged proteins, immunoblotting; recombinant USP25 tetramer and dimer fractions as size standard
[4] = target: the molecule itself; test: not stated; oligomeric states of purified orthologs and of full-length proteins, Figures S7A, S7B and S3J
[5] = target: the molecule itself; test: SEC-MALS; five-fold dilution series (1 mg/mL, 0.2 mg/mL, 0.04 mg/mL sample concentration)

B1: Human USP25 (157-720) (domain or fragment, UniProt Q9UHP3 157-720, looked up)
chain: NPYDRKRQDKAPVGLKNVGNTCWFSAVIQSLFNLLEFRRLVLNYKPPSNAQDLPRNQKEHRNLPFMRELRYLFALLVGTKRKYVDPSRAVEILKDAFKSNDSQQQDVSEFTHKLLDWLEDAFQMKAEEETDEEKPKNPMVELFYGRFLAVGVLEGKKFENTEMFGQYPLQVNGFKDLHECLEAAMIEGEIESLHSENSGKSGQEHWFTELPPVLTFELSRFEFNQALGRPEKIHNKLEFPQVLYLDRYMHRNREITRIKREEIKRLKDYLTVLQQRLERYLSYGSGPKRFPLVDVLQYALEFASSKPVCTSPVDDIDASSPPSGSIPSQTLPSTTEQQGALSSELPSTSPSSVAAISSRSVIHKPFTQSRIPPDLPMHPAPRHITEEELSVLESCLHRWRTEIENDTRDLQESISRIHRTIELMYSDKSMIQVPYRLHAVLVHEGQANAGHYWAYIFDHRESRWMKYNDIAVTKSSWEELVRDSFGGYRNASAYCLMYINDKAQFLIQEEFNKETGQPLVGIETLPPDLRDFVEEDNQRFEKELEEWDAQLAQKALQEKLLASQ
notes: also called USP25 catalytic domain; source: E. coli Rosetta2(DE3)pLacI, purified (HisTrap, 3C protease, Resource Q, size exclusion)
[1]
  binding result: binds
[2]
  stoichiometry N: 4

B2: HA-USP28 (2-1077) (enzyme, human, UniProt Q96RU2 2-1077, looked up)
chain: TAELQQDDAAGAADGHGSSCQMLLNQLREITGIQDPSFLHEALKASNGDITQAVSLLTDERVKEPSQDTVATEPSEVEGSAANKEVLAKVIDLTHDNKDDLQAAIALSLLESPKIQADGRDLNRMHEATSAETKRSKRKRCEVWGENPNPNDWRRVDGWPVGLKNVGNTCWFSAVIQSLFQLPEFRRLVLSYSLPQNVLENCRSHTEKRNIMFMQELQYLFALMMGSNRKFVDPSAALDLLKGAFRSSEEQQQDVSEFTHKLLDWLEDAFQLAVNVNSPRNKSENPMVQLFYGTFLTEGVREGKPFCNNETFGQYPLQVNGYRNLDECLEGAMVEGDVELLPSDHSVKYGQERWFTKLPPVLTFELSRFEFNQSLGQPEKIHNKLEFPQIIYMDRYMYRSKELIRNKRECIRKLKEEIKILQQKLERYVKYGSGPARFPLPDMLKYVIEFASTKPASESCPPESDTHMTLPLSSVHCSVSDQTSKESTSTESSSQDVESTFSSPEDSLPKSKPLTSSRSSMEMPSQPAPRTVTDEEINFVKTCLQRWRSEIEQDIQDLKTCIASTTQTIEQMYCDPLLRQVPYRLHAVLVHEGQANAGHYWAYIYNQPRQSWLKYNDISVTESSWEEVERDSYGGLRNVSAYCLMYINDKLPYFNAEAAPTESDQMSEVEALSVELKHYIQEDNWRFEQEVEEWEEEQSCKIPQMESSTNSSSQDYSTSQEPSVASSHGVRCLSSEHAVIVKEQTAQAIANTARAYEKSGVEAALSEVMLSPAMQGVILAIAKARQTFDRDGSEAGLIKAFHEEYSRLYQLAKETPTSHSDPRLQHVLVYFFQNEAPKRVVERTLLEQFADKNLSYDERSISIMKVAQAKLKEIGPDDMNMEEYKKWHEDYSLFRKVSVYLLTGLELYQKGKYQEALSYLVYAYQSNAALLMKGPRRGVKESVIALYRRKCLLELNAKAASLFETNDDHSVTEGINVMNELIIPCIHLIINNDISKDDLDAIEVMRNHWCSYLGQDIAENLQLCLGEFLPRLLDPSAEIIVLKEPPTIRPNSPYDLCSRFAAVMESIQGVSTVTVK
notes: USP28, human, residues 2-1077; also called hemagglutinin (HA)-tagged USP28, wild type; source: HEK293, transfected (pOPINE), in lysate; not shown: HA, N-terminal, kept
[3]
  stoichiometry N: 2

B3: G. gallus USP28 (143-706) (domain or fragment, chicken (Gallus gallus), UniProt Q5ZID5 143-706, looked up)
chain: SKQSDWKRVGDWPVGMKNIGNTCWFSAVIQSLFQLPQFRRLVLSYSFPPNVLESCRTRTGKRNIAFMQELQCLFALMLGTRRKFVDPSAALELLRDAFKSTEEQQQDVSEFTHKLLDWLEDAFQLAVNVRSPGDKSENPMVQLFYGTFLTEGVHEGNTFSKIETFGQYPLQVNGYRNLNECLEGAMVEGEMDEETATQSVKYVQERWFTKLPPVLTFELSRFEFNQSLGQPEKIHTKLEFPQTIFMDRYLYCSKELIQTKREEMKKLKEKMLVLQQKLERYMKYGSGPARFPLPDMLQYVLEFITTKPAGAVSSACVSSTEDSQMMDRQSQGESLILGTPSQPDSMLDGKDGKPEDEAVLLANSSPQQQLNAPLQPSEPPAEMSDCPAPHVVSEEEMNLVTTCLQRWRNEIEQDVRDLKESIARVSLSIDEMYSDPHLQQVPYHLHAVLVHEGQANAGHYWAFIYDQPRKSWLKYNDISVTESSWEELERDSFGGLRNASAYCLMYISDKVSHVVAGEGDGSEVGQFQKEVEALPPELRRYIQEDNWRLEQEAEEWEEEQSCKI
notes: USP28, chicken, residues 143-706; also called USP28 catalytic domain from chicken; source: E. coli Rosetta2(DE3)pLacI, purified (HisTrap, 3C protease, Resource Q, size exclusion)
[4]
  stoichiometry N: 2

B4: M. musculus USP25 (157-715) (domain or fragment, mouse (Mus musculus), UniProt P57080 157-715, looked up)
chain: NPYDRKRQEKAPVGLKNVGNTCWFSAVIQSLFNLLEFRRLVLNYKPPSNAQDLPRNQKEHRNLPFMRELRYLFALLVGTKRKYVDPSRAVEILKDAFKSNDSQQQDVSEFTHKLLDWLEDAFQMKAEEETDEEKPKNPMVELFYGRFLAMGVLEGKKFENTEMFGQYPLQVNGFKDLHECLEAAMIEGEIESLHSDNSGKSGQEHWFTELPPVLTFELSRFEFNQALGRPEKIHNKLEFPQVLYLDRYMHRNREITRIKREEIKRLKDYLTVLQQRLERYLSYGSGPKRFPLVDVLQYALEFASSKPVCTSPVDDIDASSSASGPLPSQSLPSTTEQQGPCASDLPGSSSPASGAALPLRSVIHKPFTQSRIPPDLPMHPAPRHITEEELCVLESCLHRWRTEIENDTRDLQESISRIHRTIELMYSDKSMIQVPYRLHAVLVHEGQANAGHYWAYIFDHRESRWMKYNDIAVTKSSWEELVRDSFGGYRNASAYCLMYIDDKAQFLIQEEFNKETGQALVGMETLPPDLRDFVEEDNQRFEKELEEWDTQLAQRSLQE
notes: also called USP25 catalytic domain from mouse; source: E. coli Rosetta2(DE3)pLacI, purified (HisTrap, 3C protease, Resource Q, size exclusion)
[1]
  binding result: binds
[4]
  stoichiometry N: 4

B5: M. musculus USP25 (1-1055) (enzyme, mouse (Mus musculus), UniProt P57080 1-1055, looked up)
chain: MTVEQNVLQQSAAQKHQQTFLNQLREITGINDAQILQQALKDSNGNLELAVAFLTAKNAKTPPQEETGYYQTALPGNDRYISVGSQADANVIDLTGDDKDDLQRAIALSLAESNRAFRETGITDEEQAISRVLEASIAENKACLKRTPIEVWRDSRNPYDRKRQEKAPVGLKNVGNTCWFSAVIQSLFNLLEFRRLVLNYKPPSNAQDLPRNQKEHRNLPFMRELRYLFALLVGTKRKYVDPSRAVEILKDAFKSNDSQQQDVSEFTHKLLDWLEDAFQMKAEEETDEEKPKNPMVELFYGRFLAMGVLEGKKFENTEMFGQYPLQVNGFKDLHECLEAAMIEGEIESLHSDNSGKSGQEHWFTELPPVLTFELSRFEFNQALGRPEKIHNKLEFPQVLYLDRYMHRNREITRIKREEIKRLKDYLTVLQQRLERYLSYGSGPKRFPLVDVLQYALEFASSKPVCTSPVDDIDASSSASGPLPSQSLPSTTEQQGPCASDLPGSSSPASGAALPLRSVIHKPFTQSRIPPDLPMHPAPRHITEEELCVLESCLHRWRTEIENDTRDLQESISRIHRTIELMYSDKSMIQVPYRLHAVLVHEGQANAGHYWAYIFDHRESRWMKYNDIAVTKSSWEELVRDSFGGYRNASAYCLMYIDDKAQFLIQEEFNKETGQALVGMETLPPDLRDFVEEDNQRFEKELEEWDTQLAQRSLQEKLLAAPKLREAEASATTAQAGGADYLEQPSRSDLSKHWKEETLRVIAKASHDLEDKGPETVLQSAIKLEYSRLVKLAQEDTPPETDYRLHHVLVYFIQNQAPKKIIEKTLLEQFGDRNLSFDERCHNIMKVAQAKLEMIKPEEVNLEEYEEWHADYKKFRETTMYLITGLENFQRESYIDSLLFLLCAYQNNKELLSKGPYRGHDGELISHYRRECLLKLNEQAAELFESGEDGDVNNGLIIMNEFIVPFLPLLLVDDMEEKDILAVEDMRNRWCSYLGQEMEANLQEKLTDFLPKLLDCSTEIKGFHEPPKLPSYSAHELCERFARIMLSLSRTPADGR
notes: dimer-tetramer equilibrium; also called full-length mouse USP25; source: E. coli Rosetta2(DE3)pLacI, purified (HisTrap, 3C protease, Resource Q, size exclusion)
[4]
  stoichiometry N: 2 and 4

B6: Human USP25 (157-1055) (domain or fragment, UniProt Q9UHP3 157-1055, looked up)
chain: NPYDRKRQDKAPVGLKNVGNTCWFSAVIQSLFNLLEFRRLVLNYKPPSNAQDLPRNQKEHRNLPFMRELRYLFALLVGTKRKYVDPSRAVEILKDAFKSNDSQQQDVSEFTHKLLDWLEDAFQMKAEEETDEEKPKNPMVELFYGRFLAVGVLEGKKFENTEMFGQYPLQVNGFKDLHECLEAAMIEGEIESLHSENSGKSGQEHWFTELPPVLTFELSRFEFNQALGRPEKIHNKLEFPQVLYLDRYMHRNREITRIKREEIKRLKDYLTVLQQRLERYLSYGSGPKRFPLVDVLQYALEFASSKPVCTSPVDDIDASSPPSGSIPSQTLPSTTEQQGALSSELPSTSPSSVAAISSRSVIHKPFTQSRIPPDLPMHPAPRHITEEELSVLESCLHRWRTEIENDTRDLQESISRIHRTIELMYSDKSMIQVPYRLHAVLVHEGQANAGHYWAYIFDHRESRWMKYNDIAVTKSSWEELVRDSFGGYRNASAYCLMYINDKAQFLIQEEFNKETGQPLVGIETLPPDLRDFVEEDNQRFEKELEEWDAQLAQKALQEKLLASQKLRESETSVTTAQAAGDPEYLEQPSRSDFSKHLKEETIQIITKASHEHEDKSPETVLQSAIKLEYARLVKLAQEDTPPETDYRLHHVVVYFIQNQAPKKIIEKTLLEQFGDRNLSFDERCHNIMKVAQAKLEMIKPEEVNLEEYEEWHQDYRKFRETTMYLIIGLENFQRESYIDSLLFLICAYQNNKELLSKGLYRGHDEELISHYRRECLLKLNEQAAELFESGEDREVNNGLIIMNEFIVPFLPLLLVDEMEEKDILAVEDMRNRWCSYLGQEMEPHLQEKLTDFLPKLLDCSMEIKSFHEPPKLPSYSTHELCERFARIMLSLSRTPADGR
notes: source: E. coli Rosetta2(DE3)pLacI, purified (HisTrap, 3C protease, Resource Q, size exclusion)
[5]
  stoichiometry N: 4

B7: Human USP25 (1-714) (domain or fragment, UniProt Q9UHP3 1-714, looked up)
chain: MTVEQNVLQQSAAQKHQQTFLNQLREITGINDTQILQQALKDSNGNLELAVAFLTAKNAKTPQQEETTYYQTALPGNDRYISVGSQADTNVIDLTGDDKDDLQRAIALSLAESNRAFRETGITDEEQAISRVLEASIAENKACLKRTPTEVWRDSRNPYDRKRQDKAPVGLKNVGNTCWFSAVIQSLFNLLEFRRLVLNYKPPSNAQDLPRNQKEHRNLPFMRELRYLFALLVGTKRKYVDPSRAVEILKDAFKSNDSQQQDVSEFTHKLLDWLEDAFQMKAEEETDEEKPKNPMVELFYGRFLAVGVLEGKKFENTEMFGQYPLQVNGFKDLHECLEAAMIEGEIESLHSENSGKSGQEHWFTELPPVLTFELSRFEFNQALGRPEKIHNKLEFPQVLYLDRYMHRNREITRIKREEIKRLKDYLTVLQQRLERYLSYGSGPKRFPLVDVLQYALEFASSKPVCTSPVDDIDASSPPSGSIPSQTLPSTTEQQGALSSELPSTSPSSVAAISSRSVIHKPFTQSRIPPDLPMHPAPRHITEEELSVLESCLHRWRTEIENDTRDLQESISRIHRTIELMYSDKSMIQVPYRLHAVLVHEGQANAGHYWAYIFDHRESRWMKYNDIAVTKSSWEELVRDSFGGYRNASAYCLMYINDKAQFLIQEEFNKETGQPLVGIETLPPDLRDFVEEDNQRFEKELEEWDAQLAQKALQE
notes: USP25, human, residues 1-714; tetrameric and dimeric species side by side; source: E. coli Rosetta2(DE3)pLacI, purified (HisTrap, 3C protease, Resource Q, size exclusion)
[5]
  stoichiometry N: 4 and 2
